Assay results as given in PMC9771711 (Science (New York, N.Y.), 2021).

Target: CCHFV Gc^1579 (Crimean-Congo hemorrhagic fever virus, …)
Test: BLI

B1: ADI-36121 (as used in BLI) (antibody, V domains shown)
VH: EVQLLESGGDLVQPGGSLRLSCAASGFTFSSYVMSWVRQAPGKGLEWVSVIYRGGSTKYADSVKGRFTISRDDSKNTLYLQMNSLRVEDTAVYYCVKDPKAWLEPEWWGQGTLVTVSS
VL: DIQMTQSPSSLSASVGDRVTITCRASQSISKYLSWFQQKPGKAPNLLIYAASYLQSGVPSRFSGSGSGTDFTLTISSLQPEDFATYYCQQSYSNPRTFGQGTKVEIK
binding result: binds
